Data on 1 molecule can be found in paper PMC3279196 (Journal of Molecular Biology, 2011).

The series “static light scattering” concerns the molecule itself. The experiment in a line: static light scattering.
Series [1] has as its target T1, CheW from Thermotoga maritima (T. maritima, UniProt Q56311 1-151).
T1 sequence (looked up): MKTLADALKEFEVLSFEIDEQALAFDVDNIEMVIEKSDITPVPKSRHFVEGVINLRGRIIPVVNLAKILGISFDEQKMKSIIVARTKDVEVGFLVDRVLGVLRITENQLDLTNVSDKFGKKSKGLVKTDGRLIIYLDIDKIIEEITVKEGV
The experiment in a line: NMR titration.

Series [2] deals with T1, CheW from Thermotoga maritima. The experiment in a line: NMR titration. This is another data set of the same source.

Read-outs that look alike come from different tables or passages of the source.

B1: TM0014(90-206) with N-terminal tyrosine and His5 tag (domain or fragment, T. maritima, UniProt Q7DFA3 90-206, looked up)
chain: KSGTNVDQIVERVKEASSQIGETLENIRSIEKLIQNIMRIARETNILALNATIEAARAGEAGKGFMIVANEVQNLSNETNEVTKQIVEKAREILESSQRSLENLEFMANLFETVGKT
On to B1, for which, in the series “static light scattering”, the “stoichiometry N” value amounted to 2. Further, the figures for the Kd in series [1] and in series [2] were around 1200 µM and around 300 µM, respectively.

What is called stoichiometry N is the number of molecules, sites or subunits per partner or assembly. The Kd is the constant that tells how readily two partners part at equilibrium. Lower therefore signals tighter binding.
